# From publication PMC9713472 (2022)
# B1: AURKA-Venus WT [human] / TPX2 [human (endogenous in U2OS)] (parent complex)
# chain 1: MDRSKENCISGPVKATAPVGGPKRVLVTQQFPCQNPLPVNSGQAQRVLCPSNSSQRIPLQAQKLVSSHKPVQNQKQKQLQATSVPHPVSRPLNNTQKSKQPLPSAPENNPEEELASKQKNEESKKRQWALEDFEIGRPLGKGKFGNVYLAREKQSKFILALKVLFKAQLEKAGVEHQLRREVEIQSHLRHPNILRLYGYFHDATRVYLILEYAPLGTVYRELQKLSKFDEQRTATYITELANALSYCHSKRVIHRDIKPENLLLGSAGELKIADFGWSVHAPSSRRTTLCGTLDYLPPEMIEGRMHDEKVDLWSLGVLCYEFLVGKPPFEANTYQETYKRISRVEFTFPDFVTEGARDLISRLLKHNPSQRPMLREVLEHPWITANSSKPSNCQNKESASKQS
# chain 2: MSQVKSSYSYDAPSDFINFSSLDDEGDTQNIDSWFEEKANLENKLLGKNGTGGLFQGKTPLRKANLQQAIVTPLKPVDNTYYKEAEKENLVEQSIPSNACSSLEVEAAISRKTPAQPQRRSLRLSAQKDLEQKEKHHVKMKAKRCATPVIIDEILPSKKMKVSNNKKKPEEEGSAHQDTAEKNASSPEKAKGRHTVPCMPPAKQKFLKSTEEQELEKSMKMQQEVVEMRKKNEEFKKLALAGIGQPVKKSVSQVTKSVDFHFRTDERIKQHPKNQEEYKEVNFTSELRKHPSSPARVTKGCTIVKPFNLSQGKKRTFDETVSTYVPLAQQVEDFHKRTPNRYHLRSKKDDINLLPSKSSVTKICRDPQTPVLQTKHRARAVTCKSTAELEAEELEKLQQYKFKARELDPRILEGGPILPKKPPVKPPTEPIGFDLEIEKRIQERESKKKTEDEHFEFHSRPCPTKILEDVVGVPEKKVLPITVPKSPAFALKNRIRMPTKEDEEEDEPVVIKAQPVPHYGVPFKPQIPEARTVEICPFSFDSRDKERQLQKEKKIKELQKGEVPKFKALPLPHFDTINLPEKKVKNVTQIEPFCLETDRRGALKAQTWKHQLEEELRQQKEAACFKARPNTVISQEPFVPKKEKKSVAEGLSGSLVQEPFQLATEKRAKERQELEKRMAEVEAQKAQQLEEARLQEEEQKKEELARLRRELVHKANPIRKYQGLEIKSSDQPLTVPVSPKFSTRFHC
# Variants of: B1
# Test: in situ proximity ligation assay (isPLA); mitotic U2OS cells, endogenous TPX2, n ≥ 10 cells; read off a plot
row,response [AU],Variant
1,~3,chain 1 R371A
2,~1.3,"chain 1 R371A, chain 1 L374A"

# The remaining lines, values behind:
row,Variant,response [AU]
1,chain 1 S155R,~2.6
2,chain 1 L374I,~3.7
